From patent US20250122285A1 (ANWITA BIOSCIENCES, published 2025)

Target: T1, CD122/CD132 heterodimer (human, UniProt P14784 27-239; P31785 23-262)
T1 construct: Bought from ACROBIO as 'AVT-TAG CD122/CD132 heterodimer'; also called AVT-TAG CD122/CD132 heterodimer; IL-2Rβ/γ complex
T1 sequence 1: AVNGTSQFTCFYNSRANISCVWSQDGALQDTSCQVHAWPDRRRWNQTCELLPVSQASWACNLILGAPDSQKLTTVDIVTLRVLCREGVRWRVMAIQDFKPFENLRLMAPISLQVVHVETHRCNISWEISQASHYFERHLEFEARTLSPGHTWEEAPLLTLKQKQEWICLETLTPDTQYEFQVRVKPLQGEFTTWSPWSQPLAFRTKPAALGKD
T1 sequence 2: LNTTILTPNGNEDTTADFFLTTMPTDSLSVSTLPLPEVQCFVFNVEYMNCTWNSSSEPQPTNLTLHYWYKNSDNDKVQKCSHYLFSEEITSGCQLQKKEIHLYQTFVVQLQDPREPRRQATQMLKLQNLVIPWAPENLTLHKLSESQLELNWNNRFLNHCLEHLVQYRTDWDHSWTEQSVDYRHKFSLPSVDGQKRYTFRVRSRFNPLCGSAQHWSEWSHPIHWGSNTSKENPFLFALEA
Assay: BLI (OCTET RED96), receptor on biosensor, IL-2 in solution at 10-2,000 nM, 24 C
Protocol: OCTET® RED96 was used to characterize the interactions of wild-type hL-2 and hhL-2 muteins with CD25, CD122, or CD122/CD132 heterodimer. AVT-TAG CD122/CD132 heterodimer was purchased from ACROBIO. The protein samples were diluted in the OCTET® kinetic buffer. […] The biosensor was then dipped into a solution containing a wild-type hL-2 and IL-2 muteins at 10 to 2,000 nM at 24° C. The association and dissociation sensorgraph was fitted by global or local fitting using the OCTET® Data Analysis HT software.

Kd: 242 nM
B1: IL-2-IL-15 Chimera 65 (T3A, I92A, C125S, Q126E) (ligand)
chain: APASSSTKKTQLQLEHLLLDLQMILNGIQSMEIDATTFKFYMPKKATELKHLQCLEEELKPLEEVLNLAQSKNFHLRPRDLISNINVAVLELKGSETTFMCEYADETATIVEFLNRWITFSESIISTLT
